The record followed here is patent US7326418B2, “Identification of novel factors that block programmed cell death or apoptosis by targeting JNK” (University of Chicago, priority 2001, dated 2008).

The assay deals with T1, GST-MKK7 (Homo sapiens, UniProt O14733, Q133P/Q94H).
T1 construct: made in house; host or cells: E. coli BL21
T1 sequence (O14733 1-401 Q94H/Q133P limits assumed): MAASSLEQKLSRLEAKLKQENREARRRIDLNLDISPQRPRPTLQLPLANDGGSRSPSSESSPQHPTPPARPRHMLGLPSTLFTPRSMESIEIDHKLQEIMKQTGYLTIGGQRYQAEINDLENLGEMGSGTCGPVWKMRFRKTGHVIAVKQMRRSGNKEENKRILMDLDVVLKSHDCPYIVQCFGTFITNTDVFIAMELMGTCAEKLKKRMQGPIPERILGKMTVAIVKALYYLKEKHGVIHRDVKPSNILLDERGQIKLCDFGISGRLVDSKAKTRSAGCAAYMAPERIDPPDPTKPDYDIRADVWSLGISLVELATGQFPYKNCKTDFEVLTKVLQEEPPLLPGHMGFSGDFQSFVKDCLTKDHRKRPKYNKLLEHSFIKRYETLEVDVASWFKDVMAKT
The assay can be described thus: In vitro pull-down with purified proteins: His6/T7-tagged proteins binding to GST-MKK7. Particulars: JIP1 used under non-saturating conditions, read-out: half maximum binding (HMB) value for binding to GST-MKK7. The text has this:
Protein levels are shown (bottom). b, g, Coomassie brilliant blue staining (CS) showing purity of the proteins used in (c) and (d, e), respectively. c, In vitro pull-down assays with purified proteins showing direct interaction between His6/T7-Gadd45β (His6disclosed as SEQ ID NO: 46) and GST-MKK7. Precipitated GST proteins and bound His6/T7-tagged proteins(His6 disclosed as SEQ ID NO: 46) were visualized by CS and Western blotting (WB) with anti-T7 antibodies, respectively. Inputs of His6/T7-tagged proteins (His6 disclosed as SEQ ID NO: 46) are indicated. The fraction of His6/T7-Gadd45β (His6 disclosed as SEQ ID NO: 46) and His6/T7-JIP1 (His6 disclosed as SEQ ID NO: 46) binding to GST-MKK7 (expressed as arbitrary units [a.u.]; left) was calculated relatively to a standard curve generated with known protein concentrations^19. d, e, Kinase assays showing specific inhibition of active MKK7 by purified GST-Gadd45β and His6-Gadd45β (His6 disclosed as SEQ ID NO: 46), in vitro. […]
Interaction of endogenous Gadd45β and MKK7 was detected readily (FIG. 28a). […]
GST precipitations with in vitro-translated proteins or purified proteins (FIG. 26-30), and kinase assays were performed. […] MKK7 phosphorylation was monitored by performing immunoprecipitations with anti-P-MKK7 antibodies (developed at Cell Signaling) followed by Western blots with anti-total MKK7 antibodies. […]

B1: Gadd45β: purified recombinant His6-tagged Gadd45β protein; also used generically for the recombinant Gadd45β proteins (protein, UniProt O75293 1-160, looked up)
Growth arrest and DNA …: MTLEELVACDNAAQKMQTVTAAVEELLVAAQRQDRLTVGVYESAKLMNVDPDSVVLCLLAIDEEEEDDIALQIHFTLIQSFCCDNDINIVRVSGMQRLAQLLGEPAETQGTTEARDLHCLLVTNPHTDAWKSHGLVEVASYCEESRGNNQWVPYISLQER
modifications: His6 tag
notes: purified recombinant His6-tagged Gadd45β protein; also used generically for the recombinant Gadd45β proteins
Take B1: the Kd is approximately 390 nM.
